Experimental data: publication doi:10.1101/2021.04.12.439584 (bioRxiv, 2021)

Biological target: Rabbit skeletal muscle actin (rabbit, UniProt P68135 1-377)
Test: co-sedimentation

B1: LmForminB FH2 domain (714aa-1149aa) (domain or fragment)
chain: KPKPQYTGPRLKTFFWKKILKPSGIWAASDTDDVRRAVIDESFMLKLFKLKAVAQPSAAEGAAEKSEQERRSQLRSNVFTGQRLQNMGIALKRVQVPVEVLCKALITCDSAVLPPERREMLTAALPTTEDVTALTAEKQAGRSVWTEVETYLYTAATTVKDVRERLQLWTAAEELEDTVQSISSLLSSVDAAVCAITHRNGRFARMMRIILAFGNHLNRGTPHADAEGFRLESLNQLNFVKSSDGKTTVLMALVVSLMDSGRGRSERGGGTTSAPGADNDDDDVRNALRFVEDVSCVRAVANSPLQDMGQQVSQLNFTLQRMRRVVEEAKDTKAWYDKRLPSVKAEEVPDALPGLLREAVDRYLATVGQIALRYQQLRDDVSAMMATYGEDPNADETVIWGYVLQFSKDVQRCVDTVAAVHLTKRRLMGMPEATEQ
  Kd: 200 nM

B2: LmForminA FH2 domain (695aa-1092aa) (domain or fragment)
chain: ASGAAAPMLNSSTTRNVPINGAVGDSDDAIFKAARPIELTAGARDKLLALFPKAAPKHVIEEDEATSRVQRILDVNRDRNVGIVLKFIRLPIQQIEASVRTFDTLTLGEERISGLLKIIPTSDDFEAIARAQKEHGGPWKRAEEQQLPQAVRFFLMTQRIDHYAERIHAWSLRYELHGRLEYLEQKLSKADKAIDATFASPSLPDLLYFLLEVSNFLNAGSRFQGAKGFPITQLPQIMDFKTTDGKGTLLQYVAEILDTVNPHLQAISSELMPAVDEGRDIDVASIEQELKKLRGRLQKCKHLIEQLKNDVRWTNVLGKFIYRSLPELERVEKLAESINGKAERLQEFLCEKKETFSLNEVLRVLSNFCKRYEQEREKQRLRQERQDRMEDNKQRRQS
  Kd: 1840 nM
